Reference: paper PMC2832190

Molecular target: (Ni2+-NTA)2-Cy3-His6-AGT (O6-alkylguanine-DNA alkyltransferase) (human, UniProt P16455 1-207)
Assay: FRET

Chain of (Ni2+-NTA)2-Cy3-His6-AGT (O6-alkylguanine-DNA alkyltransferase) (P16455 whole entry): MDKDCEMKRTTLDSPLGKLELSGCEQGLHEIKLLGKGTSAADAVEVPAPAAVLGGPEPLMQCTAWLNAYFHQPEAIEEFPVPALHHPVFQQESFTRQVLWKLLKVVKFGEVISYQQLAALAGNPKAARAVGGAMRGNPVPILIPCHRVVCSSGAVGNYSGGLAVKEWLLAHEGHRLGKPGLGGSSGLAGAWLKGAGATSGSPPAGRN

GACTGACTGACTGACTGACTGACTGA (ssDNA) [FAM-DNA 26-mer]
apparent K (half saturation): 554000 M⁻¹
